Values of other authors, collected in patent US20150182494A1, “METHOD OF MANAGING DIABETIC FOOT ULCERS, PRESSURE ULCERS, VENOUS LEG ULCERS AND ASSOCIATED COMPLICATION” (INDUS BIOTECH PRIVATE LIMITED, priority 2012, published 2015).

Details: patients treated with 3 or more tubes

becalpermin [Regranex gel]
Mortality secondary to malignancy, in words: increased rate of mortality secondary to malignancy
